Laboratory results as given in patent US9371393B2, “Class I anti-CEA antibodies and uses thereof” (Immunomedics, Inc., priority 2009, dated 2016).

What was measured:
Format in all cases: cell-based, human
[1] = tested on: HT-29 cells adhesion to HUVEC; test: Endothelial cell adhesion assay, HT-29
Protocol: Endothelial cell adhesion assay—Human umbilical vein endothelial cells (HUVEC; Cambrex, San Diego, Calif.) were grown in collagen-coated dishes in EGM Media in a humidified atmosphere with 5% CO2 at 37° C. At passages 2 to 5, cells were plated at a density of 4×10^4 cells per well in 96-well plates 24 hours before the assay. Interleukin-1β (IL-1β, 1 ng/mol) was added 4 hours before the assay. At the start of the study, the medium with the IL-1β was removed and fresh DMEM with 1% bovine serum albumin (BSA) added and incubated for 30 minutes. Fresh medium without antibodies or with 10 μg/mol of MN-15 Fab′, MN-3 Fab′, or Ag8 Fab′ was added. Tumor cells (1×10^6 cells/mol) prelabeled overnight with ^3H-thymidine (100 μL per well using 1.0 μCi/mL) were added to HUVEC cultures and incubated for 30 minutes at 37° C. with rotation in medium with 20% FBS. Samples were washed thrice with PBS to remove unattached cells. Attached cells were solubilized with 0.1 N NaOH and radioactivity was measured in a β scintillation counter. The cpm attached/total cpm added (attaching potential) was determined.

[2] = tested on: tumor cell adhesion to ECM proteins (fibronectin, vitronectin, laminin, collagen-I, collagen-IV); test: Adhesion to extracellular matrix proteins assay, panel of six cell lines
Protocol: Adhesion to extracellular matrix proteins assay—The assay was done using the CYTOMATRIX™ screening kit from CHEMICON® (Kit #ECM205, Temecula, Calif.). The kit contains 96-well plates with strips coated with fibronectin, vitronectin, laminin, collagen-I, or collagen-IV. Subconfluent cell cultures were used for these studies. Cells (1×10^6 cells/mol) were seeded onto coated substrate and incubated at 37° C. for 1 hour in a CO2 incubator in PBS containing Ca^2+/Mg^2+ (200 μL per well). Adherent cells were fixed and stained. The plate was washed to remove unadhered cells and stained with 100 μL per well of MTS (Cell Titer Aq 96, PROMEGA®, Madison, Wis.) for 5 minutes at room temperature. Excess stain was removed with three PBS washes. Solubilization buffer [100 μL of a 50:50 mixture of 0.1 mol/L NaH2PO4 (pH 4.5) and 50% ethanol] was added to each well. Relative attachment was determined using absorbance readings (A540 nm-A570 nm).

LS174T cells = test: Collagen-based invasion assay, LS174T; details: 10% FBS chemoattractant, 72-hour incubation
Protocol: (§1) Collagen-based invasion assay—The assay was done using CHEMICON® Kit (#ECM551, MILLIPORE®, Billerica, Mass.). Tumor cells at 80% confluence and were serum-starved for 18 to 24 hours before the assay was used. Cells were harvested with 5 mol of 2 mmol/L EDTA/PBS per 100-mm dish and incubated at 37° C. for 5 to 15 minutes. Cells were collected into 10 to 20 mol of quenching medium (serum-free DMEM containing 5% BSA) to inactivate trypsin/EDTA from the harvesting buffer. Cells were pelleted, resuspended in quenching medium (1×10^6 cells/mol), and appropriate antibody Fabs were added to individual cell aliquots. Cell invasion potential was determined as follows. Baseline invasion and invasion in the presence of a chemoattractant (10% FBS) were measured after a 72-hour incubation period at 37° C. in a 5% CO2 incubator. The bottom side of the collagen-coated polycarbonate membrane insert of the invasion chamber was placed in 400 μL of cell stain for 20 minutes at room temperature and washed. The dye was extracted and transferred into a 96-well microtiter plate for colorimetric measurements (A560 nm).

BXPC3 cells = test: Collagen-based invasion assay, BXPC3; details: 10% FBS chemoattractant, 72-hour incubation
Protocol: as §1

B1: MN-15 Fab′: monovalent Fab′ fragment of murine MN-15 (antibody, V domains shown)
VL: DIQLTQSPAIMSASPGEKVTMTCSASSRVSYIHWYQQKSGTSPKRWIYGTSTLASGVPARFSGSGSGTSYSLTISSMEAEDAATYYCQQWSYNPPTFGAGTKLELKR
VH: EVRLVESGGGLVQGPGSLRLSCAASGFALTDYYMSWVRQSPGKTLEWLGFIANKANGHTTDYSPSVKGRFTISRDNSQTILYLQMNTLRTEDSATYYCARDMGIRWNFDVWGQGTTVTVSS
B1 was tested. Which decrease in adhesion [1] did it give?
Its decrease in adhesion is 48%.

What about the “effect on adhesion to fibronectin” value [2] of the same molecule?
Its value is “induced a decrease in adhesion of three of six cell lines”.

And the “reduction in cell invasion” value (LS174T cells)?
Its value is 30%.

And the “reduction in cell invasion” value (BXPC3 cells)?
The value was 44%.
